From patent publication US20030028904A1

Target: His-tagged Dock180 (UniProt Q14185)
Test: cell-based or functional assay

Chain of ELMO1-GFP (Q8BPU7 whole entry): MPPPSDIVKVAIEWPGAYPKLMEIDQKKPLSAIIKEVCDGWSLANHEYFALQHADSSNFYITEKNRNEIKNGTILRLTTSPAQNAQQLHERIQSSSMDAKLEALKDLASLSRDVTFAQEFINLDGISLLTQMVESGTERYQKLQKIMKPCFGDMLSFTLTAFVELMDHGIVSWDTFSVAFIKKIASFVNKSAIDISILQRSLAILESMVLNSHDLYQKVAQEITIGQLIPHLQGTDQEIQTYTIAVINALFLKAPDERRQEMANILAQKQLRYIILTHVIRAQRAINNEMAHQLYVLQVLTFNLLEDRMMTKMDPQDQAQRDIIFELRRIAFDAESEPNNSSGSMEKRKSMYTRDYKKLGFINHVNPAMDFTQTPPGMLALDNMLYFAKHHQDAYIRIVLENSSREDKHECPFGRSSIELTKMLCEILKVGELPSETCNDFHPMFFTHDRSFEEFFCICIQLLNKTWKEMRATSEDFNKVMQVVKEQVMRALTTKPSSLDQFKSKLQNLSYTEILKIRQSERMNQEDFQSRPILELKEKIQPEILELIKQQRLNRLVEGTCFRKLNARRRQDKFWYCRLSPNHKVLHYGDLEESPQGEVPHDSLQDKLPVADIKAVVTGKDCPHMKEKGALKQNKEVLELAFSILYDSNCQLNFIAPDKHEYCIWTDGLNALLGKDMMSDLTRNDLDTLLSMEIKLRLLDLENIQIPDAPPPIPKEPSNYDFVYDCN

bead uptake in the LR73 phagocytosis assay (GFP positive cells with engulfed particles): 2 fold
Substance: ELMO1-GFP (from UniProt Q8BPU7 1-727)
